Reference: patent publication US20260115302A1 (XILIO DEVELOPMENT, published 2026)

Target: T1, CD25-Fc (UniProt P01589 22-240)
T1 construct: Analyte flowed over the immobilised constructs in SPR (16, 8, 4, 2, 1 nM); also called IL-2Ralpha-Fc; not shown: Fc part of the reagent
T1 sequence (looked up): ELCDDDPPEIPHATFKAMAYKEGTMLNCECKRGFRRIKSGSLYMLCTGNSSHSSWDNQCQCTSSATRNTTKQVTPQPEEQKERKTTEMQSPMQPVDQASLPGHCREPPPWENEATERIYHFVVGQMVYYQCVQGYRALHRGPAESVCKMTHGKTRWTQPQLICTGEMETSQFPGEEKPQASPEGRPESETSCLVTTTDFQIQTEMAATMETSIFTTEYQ
Experiment: SPR (Reichert 4Channel, 25 C): MMP-activated construct immobilised on the chip by amine coupling, CD25-Fc flowed over as analyte

B1: AK168 after protease cleavage (Fc fusion)
chain: LYHPSGPAPTSSSTKKTQLQLEHLLLDLQMILNGINNYKNPKLTAMLTAKFAMPKKATELKHLQCLEEALKPLEEVLNLAQSKNFHLRPRDLISNINVIVLELKGSETTFMCEYADETATIVEFLNRWITFAQSIISTLT
notes: The fragments present on the SPR chip are not described
B1: no binding.
